# Assay results reported in article PMC7948970.
# How the values were obtained:
# Test in all cases: SEC; analytical gel filtration on an XBridge BEH SEC 200 Å 3.5 μm column; molecular weight estimated from a standard curve (thyroglobulin, immunoglobin, BSA, myoglobulin)
# [1] = target: Staphylococcus aureus oleate hydratase (OhyA) (Staphylococcus aureus)
# [2] = target: Staphylococcus aureus oleate hydratase OhyA(E82A) (Staphylococcus aureus)
# [3] = target: Staphylococcus aureus oleate hydratase OhyA(Y201F) (Staphylococcus aureus)
substance,measurement,setting,value
Staphylococcus aureus oleate hydratase (OhyA) (enzyme),stoichiometry N,[1],2
Staphylococcus aureus oleate hydratase OhyA(E82A) (enzyme),stoichiometry N,[2],2
Staphylococcus aureus oleate hydratase OhyA(Y201F) (enzyme),stoichiometry N,[3],2
